Experimental data: patent US20240270846A1 (published 2024)
Substitutions are numbered along the chain they refer to. Names may count otherwise.

B1: CE115HA000 T57K one-arm antibody (antibody, human IgG1, kappa, L234A L235A, N297A, name in Kabat numbering)
heavy: QVQLVESGGGVVQPGRSLRLSCAASGFTFSNAWMHWVRQAPGKGLEWVAQIKAKSNNYAKYYAESVKGRFTISRDDSKNSLYLQMNSLKTEDTAVYYCRYVHYGAYYGVDAWGQGTTVTVSSASTKGPSVFPLAPSSKSTSGGTAALGCLVKDYFPEPVTVSWNSGALTSGVHTFPAVLQSSGLYSLSSVVTVPSSSLGTQTYICNVNHKPSNTKVDKKVEPKSCDKTHTCPPCPAPEAAGGPSVFLFPPKPKDTLMISRTPEVTCVVVDVSHEDPEVKFNWYVDGVEVHNAKTKPREEQYASTYRVVSVLTVLHQDWLNGKEYKCKVSNKALPAPIEKTISKAKGQPREPQVYTLPPSRCELTKNQVSLSCAVKGFYPSDIAVEWESNGQPENNYKTTPPVLDSDGSFFLVSKLTVDKSRWQQGNVFSCSVMHEALHNHYTQKSLSLSPDYKDDDDK
chain: EPKSSDKTHTCPPCPAPELLGGPSVFLFPPKPKDTLMISRTPEVTCVVVDVSHEDPEVKFNWYVDGVEVHNAKTKPREEQYNSTYRVVSVLTVLHQDWLNGKEYKCKVSNKALPAPIEKTISKAKGQPREPQVCTLPPSRDELTKNQVSLWCLVKGFYPSDIAVEWESNGQPENNYKTTPPVLDSDGSFFLYSKLTVDKSRWQQGNVFSCSVMHEALHNRYTQKSLSLSP
light: DIVMTQSPLSLPVTPGEPASISCRSSQSLVHSNRNTYLHWYQQKPGQAPRLLIYKVSNRFSGVPDRFSGSGSGTDFTLKISRVEAEDVGVYYCGQGTQVPYTFGQGTKLEIKRTVAAPSVFIFPPSDEQLKSGTASVVCLLNNFYPREAKVQWKVDNALQSGNSQESVTEQDSKDSTYSLSSTLTLSKADYEKHKVYACEVTHQGLSSPVTKSFNRGEC
notes: one-arm antibody
B2: CE115HA000 W33A one-arm antibody (antibody, human IgG1, kappa, L234A L235A, N297A, name in Kabat numbering)
heavy: B1 heavy with W33A, K60T
chain: B1 chain
light: B1 light
notes: one-arm antibody
B3: CE115HA000 Y59E one-arm antibody (antibody, human IgG1, kappa, L234A L235A, N297A, name in Kabat numbering)
heavy: B1 heavy with K60T, Y62E
chain: B1 chain
light: B1 light
notes: one-arm antibody
B4: CE115HA000 Y55G one-arm antibody (antibody, human IgG1, kappa, L234A L235A, N297A, name in Kabat numbering)
heavy: B1 heavy with Y58G, K60T
chain: B1 chain
light: B1 light
notes: one-arm antibody
B5: CE115HA000 W33F one-arm antibody (antibody, human IgG1, kappa, L234A L235A, N297A, name in Kabat numbering)
heavy: B1 heavy with W33F, K60T
chain: B1 chain
light: B1 light
notes: one-arm antibody
B6: CE115HA000 Y58A one-arm antibody (antibody, human IgG1, kappa, L234A L235A, N297A, name in Kabat numbering)
heavy: B1 heavy with K60T, Y61A
chain: B1 chain
light: B1 light
notes: one-arm antibody
B7: CE115HA000 W33D one-arm antibody (antibody, human IgG1, kappa, L234A L235A, N297A, name in Kabat numbering)
heavy: B1 heavy with W33D, K60T
chain: B1 chain
light: B1 light
notes: one-arm antibody
B8: CE115HA000 Y58D one-arm antibody (antibody, human IgG1, kappa, L234A L235A, N297A, name in Kabat numbering)
heavy: B1 heavy with K60T, Y61D
chain: B1 chain
light: B1 light
notes: one-arm antibody
B9: CE115HA000 Y59D one-arm antibody (antibody, human IgG1, kappa, L234A L235A, N297A, name in Kabat numbering)
heavy: B1 heavy with K60T, Y62D
chain: B1 chain
light: B1 light
notes: one-arm antibody
B10: CE115HA000 W33Y one-arm antibody (antibody, human IgG1, kappa, L234A L235A, N297A, name in Kabat numbering)
heavy: B1 heavy with W33Y, K60T
chain: B1 chain
light: B1 light
notes: one-arm antibody
B11: CE115HA000 Y59A one-arm antibody (antibody, human IgG1, kappa, L234A L235A, N297A, name in Kabat numbering)
heavy: B1 heavy with K60T, Y62A
chain: B1 chain
light: B1 light
notes: one-arm antibody
B12: CE115HA000 Y55D one-arm antibody (antibody, human IgG1, kappa, L234A L235A, N297A, name in Kabat numbering)
heavy: B1 heavy with Y58D, K60T
chain: B1 chain
light: B1 light
notes: one-arm antibody
B13: CE115HA000 V11L one-arm antibody (antibody, human IgG1, kappa, L234A L235A, N297A, name in Kabat numbering)
heavy: B1 heavy with V11L, K60T
chain: B1 chain
light: B1 light
notes: one-arm antibody
B14: CE115HA000 W33H one-arm antibody (antibody, human IgG1, kappa, L234A L235A, N297A, name in Kabat numbering)
heavy: B1 heavy with W33H, K60T
chain: B1 chain
light: B1 light
notes: one-arm antibody
B15: CE115HA000 Y58K one-arm antibody (antibody, human IgG1, kappa, L234A L235A, N297A, name in Kabat numbering)
heavy: B1 heavy with K60T, Y61K
chain: B1 chain
light: B1 light
notes: one-arm antibody
B16: CE115HA000 W33L one-arm antibody (antibody, human IgG1, kappa, L234A L235A, N297A, name in Kabat numbering)
heavy: B1 heavy with W33L, K60T
chain: B1 chain
light: B1 light
notes: one-arm antibody
B17: CE115HA000 D101A one-arm antibody (antibody, human IgG1, kappa, L234A L235A, N297A, name in Kabat numbering)
heavy: B1 heavy with K60T, D110A
chain: B1 chain
light: B1 light
notes: one-arm antibody (one Fab)
B18: CE115HA000 A99F one-arm antibody (antibody, human IgG1, kappa, L234A L235A, N297A, name in Kabat numbering)
heavy: B1 heavy with K60T, A105F
chain: B1 chain
light: B1 light
notes: one-arm antibody (one Fab)
B19: CE115HA000 A56N one-arm antibody (antibody, human IgG1, kappa, L234A L235A, N297A, name in Kabat numbering)
heavy: B1 heavy with A59N, K60T
chain: B1 chain
light: B1 light
notes: one-arm antibody (one Fab)
B20: CE115HA000 A99D one-arm antibody (antibody, human IgG1, kappa, L234A L235A, N297A, name in Kabat numbering)
heavy: B1 heavy with K60T, A105D
chain: B1 chain
light: B1 light
notes: one-arm antibody (one Fab)
B21: CE115HA000 A56Q one-arm antibody (antibody, human IgG1, kappa, L234A L235A, N297A, name in Kabat numbering)
heavy: B1 heavy with A59Q, K60T
chain: B1 chain
light: B1 light
notes: one-arm antibody (one Fab)
B22: CE115HA000 A56L one-arm antibody (antibody, human IgG1, kappa, L234A L235A, N297A, name in Kabat numbering)
heavy: B1 heavy with A59L, K60T
chain: B1 chain
light: B1 light
notes: one-arm antibody (one Fab)
B23: CE115HA000 A56Y one-arm antibody (antibody, human IgG1, kappa, L234A L235A, N297A, name in Kabat numbering)
heavy: B1 heavy with A59Y, K60T
chain: B1 chain
light: B1 light
notes: one-arm antibody (one Fab)

molecular target: T1, CD3 epsilon homodimer protein (UniProt P07766 23-126); experiment: SPR Biacore T200, antibody over immobilised CD3e homodimer;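 also: CD3 epsilon homodimer amine-coupled on a CM4 chip, run at 25 °C in HBS-EP+, Z = bound amount of each single-residue H chain variant over that of the parent antibody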
T1 construct: also called CD3 (CD3 epsilon)
T1 sequence (P07766 23-126): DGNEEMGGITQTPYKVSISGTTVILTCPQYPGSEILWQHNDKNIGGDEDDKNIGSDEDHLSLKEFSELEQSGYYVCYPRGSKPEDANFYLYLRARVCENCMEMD

Row | ratio of amounts bound (Z=Y/X vs CE115HA000) | Binder
1 | 1.32 | B1
2 | 0.1 | B2
3 | 0.66 | B3
4 | 0.55 | B4
5 | 0.65 | B5
6 | 0.22 | B6
7 | 0.1 | B7
8 | 0.11 | B8
9 | 0.7 | B9
10 | 0.66 | B10
11 | 0.85 | B11
12 | 0.45 | B12
13 | 1 | B13
14 | 0.13 | B14
15 | 0.3 | B15
16 | 0.1 | B16

molecular target: T2, CD3 epsilon homodimer protein (UniProt P07766 23-126); experiment: SPR Biacore T200, CD3 epsilon homodimer on CM4 chip, antibody as analyte;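 also: Amine-coupled CD3 epsilon homodimer, run at 25 °C in HBS-EP+ buffer, ratio is bound amount of each single-residue H chain variant over that of the parent antibody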
T2 construct: Immobilized on Sensor chip CM4 by amine coupling; construct not described; also called CD3 (CD3 epsilon)
T2 sequence (P07766 23-126): as above

Row | ratio of amounts bound (Y/X vs CE115HA000) | Binder
17 | 1.26 | B17
18 | 1.43 | B18
19 | 0.87 | B19
20 | 0.28 | B20
21 | 0.76 | B21
22 | 0.8 | B22
23 | 0.66 | B23
